B1: Glutaryl-CoA dehydrogenase, mitochondrial (Homo sapiens), Q92947 (parent)
chain: MALRGVSVRLLSRGPGLHVLRTWVSSAAQTEKGGRTQSQLAKSSRPEFDWQDPLVLEEQLTTDEILIRDTFRTYCQERLMPRILLANRNEVFHREIISEMGELGVLGPTIKGYGCAGVSSVAYGLLARELERVDSGYRSAMSVQSSLVMHPIYAYGSEEQRQKYLPQLAKGELLGCFGLTEPNSGSDPSSMETRAHYNSSNKSYTLNGTKTWITNSPMADLFVVWARCEDGCIRGFLLEKGMRGLSAPRIQGKFSLRASATGMIIMDGVEVPEENVLPGASSLGGPFGCLNNARYGIAWGVLGASEFCLHTARQYALDRMQFGVPLARNQLIQKKLADMLTEITLGLHACLQLGRLKDQDKAAPEMVSLLKRNNCGKALDIARQARDMLGGNGISDEYHVIRHAMNLEAVNTYEGTHDIHALILGRAITGIQAFTASK
partner: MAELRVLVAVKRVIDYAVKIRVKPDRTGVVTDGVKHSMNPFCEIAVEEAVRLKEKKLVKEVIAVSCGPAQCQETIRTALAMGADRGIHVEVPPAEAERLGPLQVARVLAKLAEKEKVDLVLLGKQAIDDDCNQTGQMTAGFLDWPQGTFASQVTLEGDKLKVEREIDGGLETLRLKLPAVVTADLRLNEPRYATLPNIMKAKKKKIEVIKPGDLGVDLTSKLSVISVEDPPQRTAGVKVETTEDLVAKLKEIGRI
B2: Glutaryl-CoA dehydrogenase, mitochondrial (Homo sapiens), Q92947 (parent)
chain: B1 chain
partner: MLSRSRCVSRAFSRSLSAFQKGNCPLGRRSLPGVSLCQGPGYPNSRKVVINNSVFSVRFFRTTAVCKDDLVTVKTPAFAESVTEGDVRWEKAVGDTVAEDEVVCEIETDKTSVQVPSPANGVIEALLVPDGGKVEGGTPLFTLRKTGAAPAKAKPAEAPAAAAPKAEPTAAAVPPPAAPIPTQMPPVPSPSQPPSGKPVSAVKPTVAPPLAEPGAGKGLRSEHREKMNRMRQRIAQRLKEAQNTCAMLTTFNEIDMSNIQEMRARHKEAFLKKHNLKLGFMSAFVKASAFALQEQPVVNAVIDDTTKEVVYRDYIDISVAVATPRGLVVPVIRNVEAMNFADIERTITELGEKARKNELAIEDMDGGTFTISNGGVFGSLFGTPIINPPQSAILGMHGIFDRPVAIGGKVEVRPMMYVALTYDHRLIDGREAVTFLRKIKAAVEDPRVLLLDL

Variants of: B1
Details: with etfb_human ETFB

Variant	effect of a mutation on the interaction
MALRGVSVRLLSRGPGLHVLRTWVSSAAQTEKGGRTQSQLAKSSRPEFDWQDPLVLEEQLTTDEILIRDTFRTYCQERLMPRILLANRNEVFHREIISEMGELGVLGPTIKGYGCARVSSVAYGLLARELERVDSGYRSAMSVQSSLVMHPIYAYGSEEQRQKYLPQLAKGELLGCFGLTEPNSGSDPSSMETRAHYNSSNKSYTLNGTKTWITNSPMADLFVVWARCEDGCIRGFLLEKGMRGLSAPRIQGKFSLRASATGMIIMDGVEVPEENVLPGASSLGGPFGCLNNARYGIAWGVLGASEFCLHTARQYALDRMQFGVPLARNQLIQKKLADMLTEITLGLHACLQLGRLKDQDKAAPEMVSLLKRNNCGKALDIARQARDMLGGNGISDEYHVIRHAMNLEAVNTYEGTHDIHALILGRAITGIQAFTASK [G117R]	decreasing interaction strength
MALRGVSVRLLSRGPGLHVLRTWVSSAAQTEKGGRTQSQLAKSSRPEFDWQDPLVLEEQLTTDEILIRDTFRTYCQERLMPRILLANRNEVFHREIISEMGELGVLGPTIKGYGCAGVLSVAYGLLARELERVDSGYRSAMSVQSSLVMHPIYAYGSEEQRQKYLPQLAKGELLGCFGLTEPNSGSDPSSMETRAHYNSSNKSYTLNGTKTWITNSPMADLFVVWARCEDGCIRGFLLEKGMRGLSAPRIQGKFSLRASATGMIIMDGVEVPEENVLPGASSLGGPFGCLNNARYGIAWGVLGASEFCLHTARQYALDRMQFGVPLARNQLIQKKLADMLTEITLGLHACLQLGRLKDQDKAAPEMVSLLKRNNCGKALDIARQARDMLGGNGISDEYHVIRHAMNLEAVNTYEGTHDIHALILGRAITGIQAFTASK [S119L]	decreasing interaction strength
MALRGVSVRLLSRGPGLHVLRTWVSSAAQTEKGGRTQSQLAKSSRPEFDWQDPLVLEEQLTTDEILIRDTFRTYCQERLMPRILLANRNEVFHREIISEMGELGVLGPTIKGYGCAGVSSVAYGLLARELERVDSGYRSAMSVQSSLVMHPIYAHGSEEQRQKYLPQLAKGELLGCFGLTEPNSGSDPSSMETRAHYNSSNKSYTLNGTKTWITNSPMADLFVVWARCEDGCIRGFLLEKGMRGLSAPRIQGKFSLRASATGMIIMDGVEVPEENVLPGASSLGGPFGCLNNARYGIAWGVLGASEFCLHTARQYALDRMQFGVPLARNQLIQKKLADMLTEITLGLHACLQLGRLKDQDKAAPEMVSLLKRNNCGKALDIARQARDMLGGNGISDEYHVIRHAMNLEAVNTYEGTHDIHALILGRAITGIQAFTASK [Y155H]	increasing interaction strength
MALRGVSVRLLSRGPGLHVLRTWVSSAAQTEKGGRTQSQLAKSSRPEFDWQDPLVLEEQLTTDEILIRDTFRTYCQERLMPRILLANRNEVFHREIISEMGELGVLGPTIKGYGCAGVSSVAYGLLARELERVDSGYRSAMSVQSSLVMHPIYAYGSEEQQQKYLPQLAKGELLGCFGLTEPNSGSDPSSMETRAHYNSSNKSYTLNGTKTWITNSPMADLFVVWARCEDGCIRGFLLEKGMRGLSAPRIQGKFSLRASATGMIIMDGVEVPEENVLPGASSLGGPFGCLNNARYGIAWGVLGASEFCLHTARQYALDRMQFGVPLARNQLIQKKLADMLTEITLGLHACLQLGRLKDQDKAAPEMVSLLKRNNCGKALDIARQARDMLGGNGISDEYHVIRHAMNLEAVNTYEGTHDIHALILGRAITGIQAFTASK [R161Q]	increasing interaction strength
MALRGVSVRLLSRGPGLHVLRTWVSSAAQTEKGGRTQSQLAKSSRPEFDWQDPLVLEEQLTTDEILIRDTFRTYCQERLMPRILLANRNEVFHREIISEMGELGVLGPTIKGYGCAGVSSVAYGLLARELERVDSGYRSAMSVQSSLVMHPIYAYGSEEQRQKYLPQLAKGELLGCFGLTEPNSGSDPSSMETRAHYNSSNKSYTLNGTKTWITNSLMADLFVVWARCEDGCIRGFLLEKGMRGLSAPRIQGKFSLRASATGMIIMDGVEVPEENVLPGASSLGGPFGCLNNARYGIAWGVLGASEFCLHTARQYALDRMQFGVPLARNQLIQKKLADMLTEITLGLHACLQLGRLKDQDKAAPEMVSLLKRNNCGKALDIARQARDMLGGNGISDEYHVIRHAMNLEAVNTYEGTHDIHALILGRAITGIQAFTASK [P217L]	decreasing interaction strength
MALRGVSVRLLSRGPGLHVLRTWVSSAAQTEKGGRTQSQLAKSSRPEFDWQDPLVLEEQLTTDEILIRDTFRTYCQERLMPRILLANRNEVFHREIISEMGELGVLGPTIKGYGCAGVSSVAYGLLARELERVDSGYRSAMSVQSSLVMHPIYAYGSEEQRQKYLPQLAKGELLGCFGLTEPNSGSDPSSMETRAHYNSSNKSYTLNGTKTWITNSPMADLFVVWAPCEDGCIRGFLLEKGMRGLSAPRIQGKFSLRASATGMIIMDGVEVPEENVLPGASSLGGPFGCLNNARYGIAWGVLGASEFCLHTARQYALDRMQFGVPLARNQLIQKKLADMLTEITLGLHACLQLGRLKDQDKAAPEMVSLLKRNNCGKALDIARQARDMLGGNGISDEYHVIRHAMNLEAVNTYEGTHDIHALILGRAITGIQAFTASK [R227P]	increasing interaction strength
MALRGVSVRLLSRGPGLHVLRTWVSSAAQTEKGGRTQSQLAKSSRPEFDWQDPLVLEEQLTTDEILIRDTFRTYCQERLMPRILLANRNEVFHREIISEMGELGVLGPTIKGYGCAGVSSVAYGLLARELERVDSGYRSAMSVQSSLVMHPIYAYGSEEQRQKYLPQLAKGELLGCFGLTEPNSGSDPSSMETRAHYNSSNKSYTLNGTKTWITNSPMADLFVVWARCEDGCIRGFLLEKGMRCLSAPRIQGKFSLRASATGMIIMDGVEVPEENVLPGASSLGGPFGCLNNARYGIAWGVLGASEFCLHTARQYALDRMQFGVPLARNQLIQKKLADMLTEITLGLHACLQLGRLKDQDKAAPEMVSLLKRNNCGKALDIARQARDMLGGNGISDEYHVIRHAMNLEAVNTYEGTHDIHALILGRAITGIQAFTASK [G244C]	increasing interaction strength
MALRGVSVRLLSRGPGLHVLRTWVSSAAQTEKGGRTQSQLAKSSRPEFDWQDPLVLEEQLTTDEILIRDTFRTYCQERLMPRILLANRNEVFHREIISEMGELGVLGPTIKGYGCAGVSSVAYGLLARELERVDSGYRSAMSVQSSLVMHPIYAYGSEEQRQKYLPQLAKGELLGCFGLTEPNSGSDPSSMETRAHYNSSNKSYTLNGTKTWITNSPMADLFVVWARCEDGCIRGFLLEKGMRGLSALRIQGKFSLRASATGMIIMDGVEVPEENVLPGASSLGGPFGCLNNARYGIAWGVLGASEFCLHTARQYALDRMQFGVPLARNQLIQKKLADMLTEITLGLHACLQLGRLKDQDKAAPEMVSLLKRNNCGKALDIARQARDMLGGNGISDEYHVIRHAMNLEAVNTYEGTHDIHALILGRAITGIQAFTASK [P248L]	increasing interaction strength
MALRGVSVRLLSRGPGLHVLRTWVSSAAQTEKGGRTQSQLAKSSRPEFDWQDPLVLEEQLTTDEILIRDTFRTYCQERLMPRILLANRNEVFHREIISEMGELGVLGPTIKGYGCAGVSSVAYGLLARELERVDSGYRSAMSVQSSLVMHPIYAYGSEEQRQKYLPQLAKGELLGCFGLTEPNSGSDPSSMETRAHYNSSNKSYTLNGTKTWITNSPMADLFVVWARCEDGCIRGFLLEKGMRGLSAPRIQGKFSLRASATGVIIMDGVEVPEENVLPGASSLGGPFGCLNNARYGIAWGVLGASEFCLHTARQYALDRMQFGVPLARNQLIQKKLADMLTEITLGLHACLQLGRLKDQDKAAPEMVSLLKRNNCGKALDIARQARDMLGGNGISDEYHVIRHAMNLEAVNTYEGTHDIHALILGRAITGIQAFTASK [M263V]	increasing interaction strength
MALRGVSVRLLSRGPGLHVLRTWVSSAAQTEKGGRTQSQLAKSSRPEFDWQDPLVLEEQLTTDEILIRDTFRTYCQERLMPRILLANRNEVFHREIISEMGELGVLGPTIKGYGCAGVSSVAYGLLARELERVDSGYRSAMSVQSSLVMHPIYAYGSEEQRQKYLPQLAKGELLGCFGLTEPNSGSDPSSMETRAHYNSSNKSYTLNGTKTWITNSPMADLFVVWARCEDGCIRGFLLEKGMRGLSAPRIQGKFSLRASATGMIIMDGVEVPEENVLSGASSLGGPFGCLNNARYGIAWGVLGASEFCLHTARQYALDRMQFGVPLARNQLIQKKLADMLTEITLGLHACLQLGRLKDQDKAAPEMVSLLKRNNCGKALDIARQARDMLGGNGISDEYHVIRHAMNLEAVNTYEGTHDIHALILGRAITGIQAFTASK [P278S]	increasing interaction strength
MALRGVSVRLLSRGPGLHVLRTWVSSAAQTEKGGRTQSQLAKSSRPEFDWQDPLVLEEQLTTDEILIRDTFRTYCQERLMPRILLANRNEVFHREIISEMGELGVLGPTIKGYGCAGVSSVAYGLLARELERVDSGYRSAMSVQSSLVMHPIYAYGSEEQRQKYLPQLAKGELLGCFGLTEPNSGSDPSSMETRAHYNSSNKSYTLNGTKTWITNSPMADLFVVWARCEDGCIRGFLLEKGMRGLSAPRIQGKFSLRASATGMIIMDGVEVPEENVLPGASSLGGPFGCLNNARYGIAWGVLGASEFCLHTARQYALDRMQFGVPLARNQLIQKKLADMLTEITLGLHACLQLGHLKDQDKAAPEMVSLLKRNNCGKALDIARQARDMLGGNGISDEYHVIRHAMNLEAVNTYEGTHDIHALILGRAITGIQAFTASK [R355H]	increasing interaction strength

Variants of: B2
Details: with odo2_human DLST

Variant	effect of a mutation on the interaction
MALRGVSVRLLSRGPGLHVLRTWVSSAAQTEKGGRTQSQLAKSSRPEFDCQDPLVLEEQLTTDEILIRDTFRTYCQERLMPRILLANRNEVFHREIISEMGELGVLGPTIKGYGCAGVSSVAYGLLARELERVDSGYRSAMSVQSSLVMHPIYAYGSEEQRQKYLPQLAKGELLGCFGLTEPNSGSDPSSMETRAHYNSSNKSYTLNGTKTWITNSPMADLFVVWARCEDGCIRGFLLEKGMRGLSAPRIQGKFSLRASATGMIIMDGVEVPEENVLPGASSLGGPFGCLNNARYGIAWGVLGASEFCLHTARQYALDRMQFGVPLARNQLIQKKLADMLTEITLGLHACLQLGRLKDQDKAAPEMVSLLKRNNCGKALDIARQARDMLGGNGISDEYHVIRHAMNLEAVNTYEGTHDIHALILGRAITGIQAFTASK [W50C]	increasing interaction strength
MALRGVSVRLLSRGPGLHVLRTWVSSAAQTEKGGRTQSQLAKSSRPEFDWQDPLVLEEQLTTDEILIRDTFRTYCQERLMPRILLANCNEVFHREIISEMGELGVLGPTIKGYGCAGVSSVAYGLLARELERVDSGYRSAMSVQSSLVMHPIYAYGSEEQRQKYLPQLAKGELLGCFGLTEPNSGSDPSSMETRAHYNSSNKSYTLNGTKTWITNSPMADLFVVWARCEDGCIRGFLLEKGMRGLSAPRIQGKFSLRASATGMIIMDGVEVPEENVLPGASSLGGPFGCLNNARYGIAWGVLGASEFCLHTARQYALDRMQFGVPLARNQLIQKKLADMLTEITLGLHACLQLGRLKDQDKAAPEMVSLLKRNNCGKALDIARQARDMLGGNGISDEYHVIRHAMNLEAVNTYEGTHDIHALILGRAITGIQAFTASK [R88C]	increasing interaction strength
